Laboratory results taken from article PMC6983367 (Proceedings of the National Academy of Sciences of the …, 2020).

Biological target: bovine mitochondrial F1-ATPase β subunit (His-tagged) (bovine, UniProt P00829 47-528)
Assay: dilution and ultrafiltration

bovine mitochondrial F1-ATPase β subunit (His-tagged), sequence (P00829 47-528): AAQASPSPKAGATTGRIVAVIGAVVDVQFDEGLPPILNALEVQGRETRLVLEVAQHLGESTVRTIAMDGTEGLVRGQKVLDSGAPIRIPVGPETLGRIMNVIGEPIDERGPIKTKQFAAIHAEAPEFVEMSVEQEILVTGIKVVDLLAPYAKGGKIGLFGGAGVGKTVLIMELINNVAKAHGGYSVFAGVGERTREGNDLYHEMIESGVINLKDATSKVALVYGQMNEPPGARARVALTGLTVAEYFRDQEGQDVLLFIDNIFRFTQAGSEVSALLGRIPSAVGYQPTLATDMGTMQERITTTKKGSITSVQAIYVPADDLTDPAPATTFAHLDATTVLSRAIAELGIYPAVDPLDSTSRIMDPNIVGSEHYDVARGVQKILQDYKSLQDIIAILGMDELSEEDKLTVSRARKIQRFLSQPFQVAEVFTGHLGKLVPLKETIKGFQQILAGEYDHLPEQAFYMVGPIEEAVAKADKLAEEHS

Binder	binding result
bovine mitochondrial F1-ATPase γ subunit (γA99C, γS191C) (natural protein) ATLKDITRRLKSIKNIQKITKSMKMVAAAKYARAERELKPARVYGVGSLALYEKADIKTPEDKKKHLIIGVSSDRGLCGAIHSSVAKQMKSEAANLAACGKEVKIIGVGDKIRSILHRTHSDQFLVTFKEVGRRPPTFGDASVIALELLNSGYEFDEGSIIFNRFRSVISYKTEEKPIFSLDTISSAESMCIYDDIDADVLRNYQEYSLANIIYYSLKESTTSEQSARMTAMDNASKNASEMIDKLTLTFNRTRQAVITKELIEIISGAAALD	binds
bovine mitochondrial F1-ATPase ε subunit (natural protein) MVAYWRQAGLSYIRYSQICAKAVRDALKTEFKANAMKTSGSTIKIVKVKKE	binds
